From paper PMC6458996, “Sostdc1: A soluble BMP and Wnt antagonist that is induced by the interaction between myeloma cells and osteoblast lineage cells” (Bone, 2019)
Blank lines part the entries; values can stand above or below the molecule they belong to.

What was measured:
[1] = target: recombinant murine low density lipoprotein receptor-related protein 6 (LRP6) (mouse) (UniProt O88572); experiment: BLI; Amine reactive 2nd generation (AR2G) biosensors (ForteBio, BLItz); analyte at multiple concentrations from 0 to 100 ug/ml; global fit to a simple 1:1 Langmuir model; which partner was immobilised is not stated outright (the legend speaks of 100 ug/ml of Sostdc1 binding to rmLRP6, BMP2 and BMP7)
[2] = target: T1, recombinant murine Sostdc1 (sclerostin domain containing 1) (mouse, UniProt Q9CQN4 24-206); experiment: as above; conditions: both partners purified
T1 construct: sclerostin domain containing 1 (Sostdc1), murine recombinant protein; also called recombinant Sostdc1; murine recombinant Sostdc1
T1 sequence (looked up): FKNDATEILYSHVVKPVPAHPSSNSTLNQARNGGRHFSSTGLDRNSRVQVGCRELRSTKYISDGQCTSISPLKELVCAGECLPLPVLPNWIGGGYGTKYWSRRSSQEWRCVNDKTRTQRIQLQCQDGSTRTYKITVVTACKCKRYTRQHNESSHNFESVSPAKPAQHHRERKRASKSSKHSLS

Sequence of recombinant murine low density lipoprotein receptor-related protein 6 (LRP6) (mouse) (O88572 20-1613): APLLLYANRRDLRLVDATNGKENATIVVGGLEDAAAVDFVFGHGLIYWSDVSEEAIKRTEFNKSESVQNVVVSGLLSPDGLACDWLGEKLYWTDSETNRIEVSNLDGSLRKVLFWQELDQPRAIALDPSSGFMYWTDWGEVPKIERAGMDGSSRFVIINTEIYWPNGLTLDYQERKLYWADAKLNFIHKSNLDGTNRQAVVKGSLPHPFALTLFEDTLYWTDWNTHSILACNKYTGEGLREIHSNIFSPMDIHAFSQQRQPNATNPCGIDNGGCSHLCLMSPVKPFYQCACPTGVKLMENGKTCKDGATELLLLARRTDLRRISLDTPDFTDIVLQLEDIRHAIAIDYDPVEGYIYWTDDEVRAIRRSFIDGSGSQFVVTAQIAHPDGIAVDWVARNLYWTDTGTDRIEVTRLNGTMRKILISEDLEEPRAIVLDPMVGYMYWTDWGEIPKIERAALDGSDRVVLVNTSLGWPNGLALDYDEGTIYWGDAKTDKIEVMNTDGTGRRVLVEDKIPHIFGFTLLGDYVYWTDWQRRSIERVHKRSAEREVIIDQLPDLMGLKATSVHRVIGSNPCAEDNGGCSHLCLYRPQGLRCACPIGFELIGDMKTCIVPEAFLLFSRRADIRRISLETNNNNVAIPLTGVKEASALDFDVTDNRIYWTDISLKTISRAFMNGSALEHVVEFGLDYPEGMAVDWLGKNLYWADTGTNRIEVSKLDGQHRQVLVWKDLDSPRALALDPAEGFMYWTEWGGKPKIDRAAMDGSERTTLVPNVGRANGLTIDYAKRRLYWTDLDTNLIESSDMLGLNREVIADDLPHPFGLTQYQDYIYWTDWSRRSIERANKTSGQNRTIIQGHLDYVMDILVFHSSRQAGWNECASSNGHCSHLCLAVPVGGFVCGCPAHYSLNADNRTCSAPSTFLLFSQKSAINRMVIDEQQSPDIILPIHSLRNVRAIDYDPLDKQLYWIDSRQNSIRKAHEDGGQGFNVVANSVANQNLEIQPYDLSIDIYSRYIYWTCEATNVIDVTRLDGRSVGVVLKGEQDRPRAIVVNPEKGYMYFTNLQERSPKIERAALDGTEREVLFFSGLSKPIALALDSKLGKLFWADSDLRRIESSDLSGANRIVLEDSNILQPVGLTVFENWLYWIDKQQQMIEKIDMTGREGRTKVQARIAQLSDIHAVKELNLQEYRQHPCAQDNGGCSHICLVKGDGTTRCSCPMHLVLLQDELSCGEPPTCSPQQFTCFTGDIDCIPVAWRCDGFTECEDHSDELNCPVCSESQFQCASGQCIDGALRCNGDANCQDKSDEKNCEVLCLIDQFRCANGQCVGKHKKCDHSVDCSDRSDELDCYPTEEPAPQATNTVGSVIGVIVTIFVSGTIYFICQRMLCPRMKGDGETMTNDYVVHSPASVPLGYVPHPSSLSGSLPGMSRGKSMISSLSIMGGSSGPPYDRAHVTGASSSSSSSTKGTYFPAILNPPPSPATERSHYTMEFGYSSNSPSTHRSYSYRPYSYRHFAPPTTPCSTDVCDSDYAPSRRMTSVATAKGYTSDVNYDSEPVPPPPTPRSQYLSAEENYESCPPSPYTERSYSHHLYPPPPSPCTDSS

- Kd [1]: 850 pM
Molecule: recombinant murine Sostdc1 (sclerostin domain containing 1) (from UniProt Q9CQN4 24-206) (natural protein)

- Kd [2]: < 1 pM
B1: bone morphogenetic protein 7 (BMP7) (ligand, UniProt P18075 293-431, looked up)
chain: STGSKQRSQNRSKTPKNQEALRMANVAENSSSDQRQACKKHELYVSFRDLGWQDWIIAPEGYAAYYCEGECAFPLNSYMNATNHAIVQTLVHFINPETVPKPCCAPTQLNAISVLYFDDSSNVILKKYRNMVVRACGCH
notes: BMP7, recombinant protein; also called ligand BMP7 protein

- Kd [2]: 9570 pM
B2: bone morphogenetic protein 2 (BMP2) (ligand, UniProt P12643 283-396, looked up)
chain: QAKHKQRKRLKSSCKRHPLYVDFSDVGWNDWIVAPPGYHAFYCHGECPFPLADHLNSTNHAIVQTLVNSVNSKIPKACCVPTELSAISMLYLDENEKVVLKNYQDMVVEGCGCR
notes: BMP2, recombinant protein; also called BMP2 ligand protein
